From PMC10487846

Tests used:
[1] = target: recombinant wild type (wt) XptA2 (Xenorhabdus nematophilus); experiment: cryo-EM structure; single-particle cryo-EM of wt XptA2, pre-pore state; first map 7.2 Å, final map 3.1 Å (3.02 Å in the methods); 10 mM Tris, 100 mM NaCl, pH 7.5; C5 symmetry
[2] = target: seleno-methionine (SeMet) labeled XptA2 (Xenorhabdus nematophilus); experiment: crystal structure; SeMet XptA2 crystals grown in 0.1 M HEPES pH 7.5, 0.2 M NaCl, 16-20% PEG-3000; MR-SAD phasing with the 7 Å cryo-EM map; 3.1 Å; pre-pore state

| Substance | stoichiometry N [1] | stoichiometry N [2] |
| --- | --- | --- |
| recombinant wild type (wt) XptA2 | 5 | – |
| seleno-methionine (SeMet) labeled XptA2 | – | 5 |
